In the experiment the target is T1, FAP (UniProt Q12884 1-760, limits assumed).
T1 construct: whole, on cells; also called FAP on HT1080-FAP cells
Kind of experiment: flow cytometry, serial dilution on HT1080-FAP cells (FAP-expressing), PE anti-human Fc detection. On the procedure: Binding of trivalent, bispecific fusion proteins to FAP-expressing (HT1080-FAP) cell lines was analyzed by flow cytometry. 2×10⁵ cells/well were incubated with a serial dilution of trivalent, bispecific antibodies for 1 h at 4° C. followed by detection using a PE-conjugated anti-human Fc antibody (Jackson ImmunoResearch Laboratories Inc).

B1: scDb/scFv-Fc (2-1)+1, trivalent bispecific anti-FAPxanti-CD3 (bispecific antibody)
chain 1: QVQLVQSGAEVKKPGSSVKVSCKASGGTFSGYTMNWVRQAPGQGLEWMGLINPYKGVSTYNGKFKDRVTITADKSTSTAYMELSSLRSEDTAVYYCARSGYYGDSDWYFDVWGQGTLVTVSSGGGGSDIQMTQSPSSLSASVGDRVTITCRASKSVSTSAYSYMHWYQQKPGKAPKLLIYLASNLESGVPSRFSGSGSGTDFTLTISSLQPEDFATYYCQHSRELPYTFGQGTKLEIKRGGGGSGGGGSQVQLVQSGAEVKKPGASVKVSCKASGYTFTENIIHWVRQAPGQGLEWMGWFHPGSGSIKYNEKFKDRVTMTADTSTSTVYMELSSLRSEDTAVYYCARHGGTGRGAMDYWGQGTLVTVGGGGSDIQMTQSPSSLSASVGDRVTITCRASQDIRNYLNWYQQKPGKAPKLLIYYTSRLHSGVPSRFSGSGSGTDFTFTISSLQPEDIATYYCQQGNTLPWTFGQGTKLEIKRAAADKTHTCPPCPAPPVAGPSVFLFPPKPKDTLMISRTPEVTCVVVDVSHEDPEVKFNWYVDGVEVHNAKTKPREEQYNSTYRVVSVLTVLHQDWLNGKEYKCKVSNKGLPSSIEKTISKAKGQPREPQVCTLPPSRDELTKNQVSLSCAVKGFYPSDIAVEWESNGQPENNYKTTPPVLDSDGSFFLVSKLTVDKSRWQQGNVFSCSVMHEALHNHYTQKSLSLSPGK
chain 2: QVQLVQSGAEVKKPGASVKVSCKASGYTFTENIIHWVRQAPGQGLEWMGWFHPGSGSIKYNEKFKDRVTMTADTSTSTVYMELSSLRSEDTAVYYCARHGGTGRGAMDYWGQGTLVTVSSGGGGSGGGGSGGGGSDIQMTQSPSSLSASVGDRVTITCRASKSVSTSAYSYMHWYQQKPGKAPKLLIYLASNLESGVPSRFSGSGSGTDFTLTISSLQPEDFATYYCQHSRELPYTFGQGTKLEIKRAAADKTHTCPPCPAPPVAGPSVFLFPPKPKDTLMISRTPEVTCVVVDVSHEDPEVKFNWYVDGVEVHNAKTKPREEQYNSTYRVVSVLTVLHQDWLNGKEYKCKVSNKGLPSSIEKTISKAKGQPREPQVYTLPPCRDELTKNQVSLWCLVKGFYPSDIAVEWESNGQPENNYKTTPPVLDSDGSFFLYSKLTVDKSRWQQGNVFSCSVMHEALHNHYTQKSLSLSPGK
notes: also called scDbCD3xFAP-Fc(hole)Δab + scFvFAP-Fc(knob)Δab
A word on the EC50: it is the concentration giving half of the maximal effect. Consider B1, for which the midpoint of the response, the EC50, lay at 0.3 nM.

B2: scDb/Fab-Fc (2-1)+1, trivalent bispecific anti-FAPxanti-CD3 (bispecific antibody, human IgG1, kappa)
chain: QVQLVQSGAEVKKPGSSVKVSCKASGGTFSGYTMNWVRQAPGQGLEWMGLINPYKGVSTYNGKFKDRVTITADKSTSTAYMELSSLRSEDTAVYYCARSGYYGDSDWYFDVWGQGTLVTVSSGGGGSDIQMTQSPSSLSASVGDRVTITCRASKSVSTSAYSYMHWYQQKPGKAPKLLIYLASNLESGVPSRFSGSGSGTDFTLTISSLQPEDFATYYCQHSRELPYTFGQGTKLEIKRGGGGSGGGGSQVQLVQSGAEVKKPGASVKVSCKASGYTFTENIIHWVRQAPGQGLEWMGWFHPGSGSIKYNEKFKDRVTMTADTSTSTVYMELSSLRSEDTAVYYCARHGGTGRGAMDYWGQGTLVTVGGGGSDIQMTQSPSSLSASVGDRVTITCRASQDIRNYLNWYQQKPGKAPKLLIYYTSRLHSGVPSRFSGSGSGTDFTFTISSLQPEDIATYYCQQGNTLPWTFGQGTKLEIKRAAADKTHTCPPCPAPPVAGPSVFLFPPKPKDTLMISRTPEVTCVVVDVSHEDPEVKFNWYVDGVEVHNAKTKPREEQYNSTYRVVSVLTVLHQDWLNGKEYKCKVSNKGLPSSIEKTISKAKGQPREPQVCTLPPSRDELTKNQVSLSCAVKGFYPSDIAVEWESNGQPENNYKTTPPVLDSDGSFFLVSKLTVDKSRWQQGNVFSCSVMHEALHNHYTQKSLSLSPGK
heavy: QVQLVQSGAEVKKPGASVKVSCKASGYTFTENIIHWVRQAPGQGLEWMGWFHPGSGSIKYNEKFKDRVTMTADTSTSTVYMELSSLRSEDTAVYYCARHGGTGRGAMDYWGQGTLVTVSSASTKGPSVFPLAPSSKSTSGGTAALGCLVKDYFPEPVTVSWNSGALTSGVHTFPAVLQSSGLYSLSSVVTVPSSSLGTQTYICNVNHKPSNTKVDKKVEPKSCDKTHTCPPCPAPPVAGPSVFLFPPKPKDTLMISRTPEVTCVVVDVSHEDPEVKFNWYVDGVEVHNAKTKPREEQYNSTYRVVSVLTVLHQDWLNGKEYKCKVSNKGLPSSIEKTISKAKGQPREPQVYTLPPCRDELTKNQVSLWCLVKGFYPSDIAVEWESNGQPENNYKTTPPVLDSDGSFFLYSKLTVDKSRWQQGNVFSCSVMHEALHNHYTQKSLSLSPGK
light: DIQMTQSPSSLSASVGDRVTITCRASKSVSTSAYSYMHWYQQKPGKAPKLLIYLASNLESGVPSRFSGSGSGTDFTLTISSLQPEDFATYYCQHSRELPYTFGQGTKLEIKRRTVAAPSVFIFPPSDEQLKSGTASVVCLLNNFYPREAKVQWKVDNALQSGNSQESVTEQDSKDSTYSLSSTLTLSKADYEKHKVYACEVTHQGLSSPVTKSFNRGEC
notes: also called scDbCD3xFAP-Fc(hole)Δab + VHFAP-CH1-Fc(knob)Δab + VLFAP-CLκ
In turn, B2 registered an EC50 of 0.4 nM. This EC50 and that of the molecule before are within 1.5-fold of each other.

B3: scDb/scFv-Fc (1-1)+2, trivalent bispecific anti-FAPxanti-CD3 (bispecific antibody)
chain 1: QVQLVQSGAEVKKPGASVKVSCKASGYTFTENIIHWVRQAPGQGLEWMGWFHPGSGSIKYNEKFKDRVTMTADTSTSTVYMELSSLRSEDTAVYYCARHGGTGRGAMDYWGQGTLVTVSSGGGGSDIQMTQSPSSLSASVGDRVTITCRASKSVSTSAYSYMHWYQQKPGKAPKLLIYLASNLESGVPSRFSGSGSGTDFTLTISSLQPEDFATYYCQHSRELPYTFGQGTKLEIKRGGGGSGGGGSQVQLVQSGAEVKKPGASVKVSCKASGYTFTENIIHWVRQAPGQGLEWMGWFHPGSGSIKYNEKFKDRVTMTADTSTSTVYMELSSLRSEDTAVYYCARHGGTGRGAMDYWGQGTLVTVGGGGSDIQMTQSPSSLSASVGDRVTITCRASKSVSTSAYSYMHWYQQKPGKAPKLLIYLASNLESGVPSRFSGSGSGTDFTLTISSLQPEDFATYYCQHSRELPYTFGQGTKLEIKRAAADKTHTCPPCPAPPVAGPSVFLFPPKPKDTLMISRTPEVTCVVVDVSHEDPEVKFNWYVDGVEVHNAKTKPREEQYNSTYRVVSVLTVLHQDWLNGKEYKCKVSNKGLPSSIEKTISKAKGQPREPQVCTLPPSRDELTKNQVSLSCAVKGFYPSDIAVEWESNGQPENNYKTTPPVLDSDGSFFLVSKLTVDKSRWQQGNVFSCSVMHEALHNHYTQKSLSLSPGK
chain 2: DIQMTQSPSSLSASVGDRVTITCRASQDIRNYLNWYQQKPGKAPKLLIYYTSRLHSGVPSRFSGSGSGTDFTFTISSLQPEDIATYYCQQGNTLPWTFGQGTKLEIKRGGGGSGGGGSGGGGSQVQLVQSGAEVKKPGSSVKVSCKASGGTFSGYTMNWVRQAPGQGLEWMGLINPYKGVSTYNGKFKDRVTITADKSTSTAYMELSSLRSEDTAVYYCARSGYYGDSDWYFDVWGQGTLVTVSSAAADKTHTCPPCPAPPVAGPSVFLFPPKPKDTLMISRTPEVTCVVVDVSHEDPEVKFNWYVDGVEVHNAKTKPREEQYNSTYRVVSVLTVLHQDWLNGKEYKCKVSNKGLPSSIEKTISKAKGQPREPQVYTLPPCRDELTKNQVSLWCLVKGFYPSDIAVEWESNGQPENNYKTTPPVLDSDGSFFLYSKLTVDKSRWQQGNVFSCSVMHEALHNHYTQKSLSLSPGK
notes: also called scDbFAPxFAP-Fc(hole)Δab + scFvhuU3-Fc(knob)Δab
Take B3: the response was half-maximal at 1 nM (EC50).

Source of the values: patent US20220396635A1 (UNIVERSIT T STUTTGART, published 2022).
